% apoptotic cells, 9D cells, CH11 1 ug/ml, 24 h (control 22.5), % apoptotic cells, Jurkat cells, CH11 1 ug/ml, 24 h (control 5.9) and % apoptotic cells, Raji cells, CH11 1 ug/ml, 24 h (control 35.9) data for 1 substance are collected here from US20060041106A1.

The assay concerns the target Fas/Apo-1 receptor (human) (UniProt P25445). The assay can be described thus: cell-based or functional assay.
UniProt P25445, sequence (P25445 26-335): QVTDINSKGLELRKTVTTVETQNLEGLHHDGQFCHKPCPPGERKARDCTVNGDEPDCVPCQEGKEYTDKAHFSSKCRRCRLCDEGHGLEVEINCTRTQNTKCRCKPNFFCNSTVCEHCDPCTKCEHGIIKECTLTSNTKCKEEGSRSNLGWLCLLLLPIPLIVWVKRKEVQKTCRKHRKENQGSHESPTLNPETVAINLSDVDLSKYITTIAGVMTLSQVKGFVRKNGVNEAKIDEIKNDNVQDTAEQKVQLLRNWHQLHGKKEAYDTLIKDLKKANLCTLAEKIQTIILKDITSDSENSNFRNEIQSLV

In turn, anti-Apo-1 monoclonal antibody, CH11 had a % apoptotic cells, 9D cells, CH11 1 ug/ml, 24 h (control 22.5) of 90.8%; a % apoptotic cells, Jurkat cells, CH11 1 ug/ml, 24 h (control 5.9) of 18.1%; a % apoptotic cells, Raji cells, CH11 1 ug/ml, 24 h (control 35.9) of 83.7%.
